From US20230064378A1 (Eli Lilly, published 2023)

T1: human IL-4Rα on cells (human, UniProt P24394 26-825)
T1 sequence: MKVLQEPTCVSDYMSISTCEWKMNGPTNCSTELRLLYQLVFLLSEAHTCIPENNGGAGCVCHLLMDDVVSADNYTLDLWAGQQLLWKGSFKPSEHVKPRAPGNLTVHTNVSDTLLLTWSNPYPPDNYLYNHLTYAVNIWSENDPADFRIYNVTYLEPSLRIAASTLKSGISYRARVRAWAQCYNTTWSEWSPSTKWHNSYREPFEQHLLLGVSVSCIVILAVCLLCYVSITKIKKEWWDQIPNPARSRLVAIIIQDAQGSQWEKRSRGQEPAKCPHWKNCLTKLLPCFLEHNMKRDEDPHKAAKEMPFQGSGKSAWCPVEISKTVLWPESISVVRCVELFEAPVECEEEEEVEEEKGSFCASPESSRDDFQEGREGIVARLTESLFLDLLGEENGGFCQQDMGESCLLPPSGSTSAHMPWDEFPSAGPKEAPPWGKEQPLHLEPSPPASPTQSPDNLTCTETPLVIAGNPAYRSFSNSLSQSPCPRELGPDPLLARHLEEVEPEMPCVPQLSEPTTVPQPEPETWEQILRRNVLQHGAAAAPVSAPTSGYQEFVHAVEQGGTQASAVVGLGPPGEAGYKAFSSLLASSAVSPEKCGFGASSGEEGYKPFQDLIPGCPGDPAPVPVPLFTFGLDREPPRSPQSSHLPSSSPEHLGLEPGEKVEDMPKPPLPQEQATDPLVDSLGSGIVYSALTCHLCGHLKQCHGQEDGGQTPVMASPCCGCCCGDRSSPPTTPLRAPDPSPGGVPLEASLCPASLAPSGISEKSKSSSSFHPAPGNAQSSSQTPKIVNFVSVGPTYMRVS


Tests used:
human IL-4Rα on cells [1] = biological target: T1, human IL-4Rα on cells; assay: cell-based or functional assay
human IL-4Rα on cells [2] = biological target: T1, human IL-4Rα on cells; assay: cell-based or functional assay; remark: listed apart in the source
Human C1q = biological target: T2, Human C1q (human, UniProt P02745 23-245; P02746 28-253; P02747 29-245); assay: ELISA, antibody coated, C1q detected with anti-C1q-HRP
T2 construct: Bought (MS Biomedical); also called complement component C1q
Protocol: The binding of the exemplified anti-IL-4Rα antibodies to human C1q was evaluated by ELISA. 96-well microplates were coated with 100 μL/well of each exemplified antibody diluted in DPBS (Dulbecco's HyClone) from 10 μg/mL to 0.19 g/mL, and incubated overnight at 4° C. The coating reagent was removed, plates were blocked with 200 μL/well casein blocking buffer (Thermo) and incubated for 2 hours at room temperature (RT). Plates were washed 3 times with wash buffer (1×TBE with 0.05% Tween 20), and 10 μg/mL Human C1q (MS Biomedical) diluted in casein blocking reagent is added at 100 μL/well and incubated for 3 hours at RT. Humanized IgG1 and humanized IgG4P isotype control antibodies were used as positive and negative controls respectively. Plates were then washed three times with wash buffer and 100 L/well of a 1:800 times dilution of Sheep anti-human C1q-HRP (Abcam #ab46191) in casein blocker was added and incubated for 1 hour at RT. The plates were then washed 6 times with wash buffer, and 100 μL/well of TMB Substrate (Pierce) was added to each well and incubated for 7 minutes. 100 μL/well of 1 N HCl was added to stop the reaction. Optical density was immediately measured at 450 nm on a colorimetric microplate reader. Data was analyzed using SoftMax Pro 7.1 Data Acquisition and Analysis Software.

human IL-4Rα on cells [3] = biological target: T1, human IL-4Rα on cells; assay: cell-based or functional assay; remark: listed apart in the source
human IL-4Rα on cells [4] = biological target: T1, human IL-4Rα on cells; assay: cell-based or functional assay; remark: listed apart in the source
human IL-4Rα on cells [5] = biological target: T1, human IL-4Rα on cells; assay: cell-based or functional assay; remark: listed apart in the source
human IL-4Rα on cells [6] = biological target: T1, human IL-4Rα on cells; assay: flow cytometry staining of primary human B cells (Th2 cells also confirmed IL-4Rα+)
Description: Flow cytometry staining was used to assess cell purity on a BD LSRFortessa Cell Analyzer.

T2 sequence (P02745 23-245 limits assumed, chain 1 of 3): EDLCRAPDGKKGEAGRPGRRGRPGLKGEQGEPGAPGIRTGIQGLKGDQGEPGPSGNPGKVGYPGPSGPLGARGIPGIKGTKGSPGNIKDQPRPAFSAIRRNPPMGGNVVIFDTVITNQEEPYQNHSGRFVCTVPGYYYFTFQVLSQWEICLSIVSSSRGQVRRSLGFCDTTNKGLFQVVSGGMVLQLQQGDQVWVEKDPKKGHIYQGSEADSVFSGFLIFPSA
T2 sequence (P02746 28-253 limits assumed, chain 2 of 3): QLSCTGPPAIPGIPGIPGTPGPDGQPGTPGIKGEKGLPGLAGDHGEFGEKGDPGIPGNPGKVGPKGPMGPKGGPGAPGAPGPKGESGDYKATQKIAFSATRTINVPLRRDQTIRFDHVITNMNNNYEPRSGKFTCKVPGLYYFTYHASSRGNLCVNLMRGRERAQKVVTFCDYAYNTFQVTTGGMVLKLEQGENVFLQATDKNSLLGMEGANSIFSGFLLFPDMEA
T2 sequence (P02747 29-245 limits assumed, chain 3 of 3): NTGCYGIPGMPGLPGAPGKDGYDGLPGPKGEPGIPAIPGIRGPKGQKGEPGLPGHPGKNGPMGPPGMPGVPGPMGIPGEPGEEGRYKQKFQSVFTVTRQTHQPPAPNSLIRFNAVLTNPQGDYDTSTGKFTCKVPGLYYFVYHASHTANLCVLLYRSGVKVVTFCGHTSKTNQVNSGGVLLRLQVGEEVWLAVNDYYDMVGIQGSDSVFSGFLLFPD

Row | IL-4 IC50 (nM), IL-4 induced SEAP activity in HEK-Blue cells (human IL-4Rα on cells [1]) | IL-13 IC50 (nM), IL-13 induced SEAP activity in HEK-Blue cells (human IL-4Rα on cells [1]) | binding result (Human C1q) | Binder | also measured
1 | 0.08 nM | 0.67 nM | no binding | 5559 IgG4P KRQ 124C/378C (antibody) heavy: QVQLVESGGGLVQPGGSLRLSCVASGFTFSHSSMNWVRQAPGKGLEWVSYISRATGAVYYADSVKGRFTISRDNAKNSLYLQMNSLRDEDTAVYYCAREPVFDYWGQGTLVTVSSASTKGPCVFPLAPCSRSTSESTAALGCLVKDYFPEPVTVSWNSGALTSGVHTFPAVLQSSGLYSLSSVVTVPSSSLGTKTYTCNVDHKPSNTKVDKRVESKYGPPCPPCPAPEFLGGPSVFLFPPKPKDTLMISRTPEVTCVVVDVSQEDPEVKFNWYVDGVEVHNAKTKPREEQFNSTYRVVSVLTVLHQDWLNGKEYKCKVSNKGLPSSIEKTISKAKGQPREPQVYTLPPSREEMTKNQVSLTCLVKGFYPSDICVEWESNGQPENNYKTTPPVLDSDGSFFLYSRLTVDKSRWQQGNVFSCSVMHEALHNHYTQKSLSLSLG light: DIQMTQSPSAMSASVGDRVTITCRASQDISNYLAWFQQKPGKVPTRLIYAASSLQSGVPSRFSGSGSGTEFTLTISSLQPEDFATYYCLQWSSYPRTFGQGTKVEIKRTVAAPSVFIFPPSDEQLKSGTASVVCLLNNFYPREAKVQWKVDNALQSGNSQESVTEQDSKDSTYSLSSTLTLSKADYEKHKVYACEVTHQGLSSPVTKSFNRGEC | Inhibition of IL-4 induced STAT6 phosphorylation, B cells IC50 (human IL-4Rα on cells [2]): 0.05 mg/L; Inhibition of IL-4 induced STAT6 phosphorylation, T cells IC50 (human IL-4Rα on cells [2]): 0.07 mg/L; Inhibition of IL-13 induced STAT6 phosphorylation in B cells IC50 (human IL-4Rα on cells [3]): 0.06 mg/L; Inhibition of IL-4 induced B cell proliferation IC50 (human IL-4Rα on cells [4]): 1.32 nM; Inhibition of CD23 expression on myeloid cells, IL-4 induced IC50 (human IL-4Rα on cells [5]): 18.2 nM; Inhibition of CD23 expression on myeloid cells, IL-13 induced IC50 (human IL-4Rα on cells [5]): 5.37 nM
2 | – | – | no binding | 5559 IgG1A 124C/378C (antibody) heavy: not shown light: DIQMTQSPSAMSASVGDRVTITCRASQDISNYLAWFQQKPGKVPTRLIYAASSLQSGVPSRFSGSGSGTEFTLTISSLQPEDFATYYCLQWSSYPRTFGQGTKVEIKRTVAAPSVFIFPPSDEQLKSGTASVVCLLNNFYPREAKVQWKVDNALQSGNSQESVTEQDSKDSTYSLSSTLTLSKADYEKHKVYACEVTHQGLSSPVTKSFNRGEC | –
3 | 3.45 nM | > 35 nM | – | 5F3 IgG4PAA (antibody, V domains shown) VH: QVQLVESGGGLVQPGGSLRLSCAASGFTFSISSMNWVRQAPGKGLEWVSYISRATGAIYYADSVKGRFTISRNNAKNSLYLQMNSLRDEDTAVYYCAREPVFDYWGQGTLVTVSS VL: DIQMTQSPSAMSASVGDRVTITCRASQGISNYLAWFQQKPGKVPTRLIYAASSLQSGVPSRFSGSGSGTEFTLTISSLQPEDFATYYCLQHNSYPRTFGQGTKVEIKR | –
4 | 0.03 nM | 0.24 nM | – | 8660 IgG4P 124C/378C (antibody, V domains shown) VH: QVQLVESGGGLVQPGGSLRLSCAASGFTFSHSSMNWVRQAPGKGLEWVSYISRATGAVYYADSVKGRFTISRDNAKNSLYLQMNSLRDEDTAVYYCAREPVFDYWGQGTLVTVSS VL: DIQMTQSPSAMSASVGDRVTITCRASQGISNYLAWFQQKPGKVPTRLIYAASSLQSGVPSRFSGSGSGTEFTLTISSLQPEDFATYYCLQWSSYPRTFGQGTKVEIKR | –
5 | – | – | – | 5559-Alexa Fluor-647 (antibody, V domains shown, Antibody conjugated to Alexa Fluor 647; the attachment sites are not stated and the letters do not carry the dye.) VH: QVQLVESGGGLVQPGGSLRLSCVASGFTFSHSSMNWVRQAPGKGLEWVSYISRATGAVYYADSVKGRFTISRDNAKNSLYLQMNSLRDEDTAVYYCAREPVFDYWGQGTLVTVSS VL: DIQMTQSPSAMSASVGDRVTITCRASQDISNYLAWFQQKPGKVPTRLIYAASSLQSGVPSRFSGSGSGTEFTLTISSLQPEDFATYYCLQWSSYPRTFGQGTKVEIK | binding result (human IL-4Rα on cells [6]): binds
